± gives the standard deviation of the averaged measurements.

The source of these data is the supplement of paper PMC10126150.
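Also: ATP exposure 15 min at 22 °C before imaging.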

This data set concerns ATP. Nature of the data set: switch fluorescence ratio, 500 uM ATP over buffer (Cy3 cluster intensity, sum of 5 cycles each) (fold (ratio)); higher = stronger signal-on switching upon ATP binding; sequences stand for … in TCGTCGGCAGCGTCAGATGTGTATAAGAGACAGTTTTTTTTTTTTTTTTTTTTTTTTT…TC. The settings on record: aptamer strand: ATP DNA aptamer (quencher-CACCTGGGGGAGTATTGCGGAGGAAGG + anchor), 100 nM annealed; ATP concentration: 500 uM. The gist of the method: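 Clusters carrying Cy3-labelled switching strands on a modified Illumina MiSeq flow-cell were annealed to 100 nM quencher-labelled ATP aptamer and imaged in selection buffer. They were imaged again after 15 min with 500 uM ATP at 22 °C, over five buffer/ATP cycles with NaOH stripping and re-annealing in between. For each cluster, the fluorescence ratio is the summed Cy3 intensity of the target cycles divided by that of the buffer cycles, averaged per switch-domain sequence. Clusters outside 100-1000 RFU were left out.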
With TAGGGGGGCG, the switch fluorescence ratio was found to be 1.01 ± 0.085. The value for TGGAAGGATT was 1.01 ± 0.015.

Consider TACGAATGAG, for which the switch fluorescence ratio came to 0.9854 ± 0.0057. For CCGTGCAGTA, the switch fluorescence ratio worked out at 3.14 ± 1.2. With GAGGCGGGTG, the switch fluorescence ratio came to 1.01 ± 0.013. For the sequence GTTGCGTTTT, the switch fluorescence ratio was 0.9852 ± 0.0095.

In the case of ATACGAGTGC, the switch fluorescence ratio was 1.01 ± 0.012. The value for CGGAAGCATG was 1.13 ± 0.047; that for TAAAATAGTT was 0.972 ± 0.026. The figure for GCACTTTTTG is 0.99 ± 0.049. Turning to AGGAGTTATT, the switch fluorescence ratio came out at 1 ± 0.024.

TGGGGCTTTA: the switch fluorescence ratio was determined as 1.06 ± 0.031. The value for CAGGGGGCCG was 1.01 ± 0.078. For ATGACTTATT, the switch fluorescence ratio was 0.968 ± 0.027.

Regarding CCTCTGGGAT, the switch fluorescence ratio came out at 2.24 ± 1.7. On to CTAAACTAGG, for which the switch fluorescence ratio was 1.02 ± 0.013.

For the sequence GGAGGCACTG, the switch fluorescence ratio was determined as 0.9996 ± 0.0095. As for CTACTTAGGG, the switch fluorescence ratio is 1.03 ± 0.036. The value for GCGTGACCGC was 0.995 ± 0.04; that for GAGGGCCGCG was 0.997 ± 0.051; that for GGGGAGAAGA was 0.9662 ± 0.005. As for TTTTAGTACC, the switch fluorescence ratio was determined as 1.018 ± 0.0081. Turning to GGGAAAAACA, the switch fluorescence ratio came out at 1.02 ± 0.05. For GCTCGGGTTG, the switch fluorescence ratio was 0.984 ± 0.041. Take AATGAAAAAT: the switch fluorescence ratio was found to be 0.989 ± 0.067. The value for TAAAATCGGG was 0.958 ± 0.023; that for AGTTTGGGAG was 0.992 ± 0.021. Turning to TTTTAGGTCC, the switch fluorescence ratio was found to be 0.977 ± 0.023. Consider TACGAGCTGA, for which the switch fluorescence ratio was 1.027 ± 0.0097.

As to CGAACTGCGT, the switch fluorescence ratio stood at 1.02 ± 0.034. The value for TACCACGGGG was 1.04 ± 0.019. Turning to GGTTGAATGT, the switch fluorescence ratio is 0.9843 ± 0.0074. On to GAAAGGGAAA, for which the switch fluorescence ratio came out at 1.03 ± 0.032.

TGCTATATGT: the switch fluorescence ratio amounted to 0.993 ± 0.013. Turning to CGTGGTTTGC, the switch fluorescence ratio is 1.03 ± 0.053. The figure for ATCATGTGGG is 0.999 ± 0.018. For CTTTATATCT, the switch fluorescence ratio was 0.993 ± 0.03. In the case of CTGAGAAGAG, the switch fluorescence ratio stood at 0.993 ± 0.041. The figure for TTTCGAGGAC is 0.983 ± 0.011; for CTCTGGGGTA it is 1.05 ± 0.031; for GGGTTGGCTA it is 0.964 ± 0.047.

For the sequence GCGTCAACTC, the switch fluorescence ratio was found to be 1.1 ± 0.016. Turning to GATGTGGTGA, the switch fluorescence ratio is 0.9929 ± 0.0061.

Turning to CGGGTCGGCG, the switch fluorescence ratio is 1.01 ± 0.049. The value for CGGTTGGCAA was 1.09 ± 0.054. On to TTGCATGGAA, for which the switch fluorescence ratio stood at 1.01 ± 0.0049. Regarding GATTTTTATG, the switch fluorescence ratio is 0.977 ± 0.011. Consider GGAAAGGGGT, for which the switch fluorescence ratio stood at 1.03 ± 0.082. As to GGGCTTTTCG, the switch fluorescence ratio is 0.992 ± 0.024. The figure for GCATGATGGG is 0.986 ± 0.043. As for ATAGGACGGG, the switch fluorescence ratio was 0.967 ± 0.028.

Turning to GGGCAGCGCA, the switch fluorescence ratio was 0.99057 ± 0.00048. The value for AGTCAGTTTT was 1.024 ± 0.0078; that for TTTTATGCTT was 0.97025 ± 0.00037. Turning to AGCGTTAGTG, the switch fluorescence ratio was found to be 1.06 ± 0.013.

Turning to CCGGTTTTTG, the switch fluorescence ratio is 1.01 ± 0.05. TTAAAGGATC: the switch fluorescence ratio amounted to 0.968 ± 0.028.

As for ATGGGGACCT, the switch fluorescence ratio was determined as 1.17 ± 0.17. The value for TAGCGGAAGT was 0.999 ± 0.017; that for ATTGGATTTT was 1 ± 0.028; that for TACTTCAAGG was 1.02 ± 0.03. In the case of GGGTCTGGTG, the switch fluorescence ratio came to 1.04 ± 0.057. The value for GATCGATTTG was 0.998 ± 0.023; that for TTTTCTACGG was 0.989 ± 0.02. As to CGTGCCCAGC, the switch fluorescence ratio amounted to 1.01 ± 0.025. Take CTCGTCAGGG: the switch fluorescence ratio was 0.995 ± 0.029. On to GGGAATTTGT, for which the switch fluorescence ratio stood at 0.9942 ± 0.0096. As for CCTCGAGACT, the switch fluorescence ratio was 1.43 ± 0.032. As to TTACTCCGGG, the switch fluorescence ratio stood at 1.3 ± 0.23. Take TTTACTGCCT: the switch fluorescence ratio is 1.06 ± 0.022. On to GGGGGGGCGT, for which the switch fluorescence ratio came out at 0.996 ± 0.032. Regarding AAGGGTAGAT, the switch fluorescence ratio was 1.01 ± 0.038. TCGGACTGGG: the switch fluorescence ratio came out at 1.01 ± 0.022.

Consider GAAACCGTGG, for which the switch fluorescence ratio is 1.06 ± 0.019. As for GGGGCTCACG, the switch fluorescence ratio stood at 0.985 ± 0.029. Regarding TCAGTTATCG, the switch fluorescence ratio amounted to 0.985 ± 0.014. The value for ATTTTTCCGT was 1.02 ± 0.019; that for AGGGTGTGGC was 1.0304 ± 0.00027. Take AGGAAATATT: the switch fluorescence ratio was found to be 1.01 ± 0.012. For TTAAGCGTTT, the switch fluorescence ratio was found to be 0.9948 ± 0.009. In the case of AGGGTAGATC, the switch fluorescence ratio came to 1.03 ± 0.018. Turning to ATTATAAAGC, the switch fluorescence ratio was found to be 1.03 ± 0.063. Take ACCGAATAAT: the switch fluorescence ratio amounted to 1.03 ± 0.019.

For GGTTTAGGTT, the switch fluorescence ratio was determined as 1.01 ± 0.029. For the sequence ATAAGGCTAA, the switch fluorescence ratio was found to be 0.982 ± 0.016. In the case of ATAGCTTGGG, the switch fluorescence ratio was 0.985 ± 0.017. On to ATGTGGAGGG, for which the switch fluorescence ratio was found to be 0.983 ± 0.033. As for TAGTGATGGT, the switch fluorescence ratio was 0.973 ± 0.029. Turning to ACAGTATCGG, the switch fluorescence ratio is 1.06 ± 0.013. Take GTCGGAGTCA: the switch fluorescence ratio is 1 ± 0.034.

For GATGGAAGGG, the switch fluorescence ratio came out at 0.974 ± 0.023. The figure for TGGGTTTGTA is 0.984 ± 0.019; for GGGATGGGTT it is 0.989 ± 0.025.

Take TCTTAGGCGG: the switch fluorescence ratio was 0.977 ± 0.039. Regarding TTTGGCATGG, the switch fluorescence ratio was 1.024 ± 0.0073. For TCGAAAAAGG, the switch fluorescence ratio is 1.0045 ± 8.5e-06. On to GCGAAAAAGA, for which the switch fluorescence ratio was 0.98 ± 0.031.

For the sequence ATCGCTGGGT, the switch fluorescence ratio came to 1.01 ± 0.019. The value for TTTGGAGTGT was 1.08 ± 0.12; that for GTTGTCTTTG was 1.01 ± 0.031. In the case of AAGCATCTTT, the switch fluorescence ratio came out at 0.974 ± 0.013.

As for GTCGTATTGG, the switch fluorescence ratio was 1.03 ± 0.03.

As for AGGGTTGTGC, the switch fluorescence ratio turned out to be 1.03 ± 0.049. Regarding TCGCCATGAT, the switch fluorescence ratio stood at 0.999 ± 0.02. The value for TTGGGAGATG was 1.1 ± 0.13; that for TTACTGGGGG was 0.999 ± 0.027; that for GATCGTACAG was 1.04 ± 0.018. As for GCTGGTACAG, the switch fluorescence ratio was determined as 1 ± 0.022. Regarding ACGCTTGAAT, the switch fluorescence ratio was 1.01 ± 0.023. As for ACTCAATTTT, the switch fluorescence ratio turned out to be 1.05 ± 0.03. For the sequence CGGGACGGAG, the switch fluorescence ratio turned out to be 0.997 ± 0.11.

In the case of AAGCGGGACG, the switch fluorescence ratio worked out at 0.999 ± 0.054. Turning to CATCGGGGGT, the switch fluorescence ratio came out at 1.29 ± 0.67.

For the sequence ATGAAGAGAT, the switch fluorescence ratio came to 0.9886 ± 0.0064. TCGGGTTTAT: the switch fluorescence ratio was found to be 1 ± 0.037. On to GTAAATAGCT, for which the switch fluorescence ratio turned out to be 1.02 ± 0.073. The value for CGCGCTTTTG was 1.01 ± 0.017; that for CGTGTTTTCC was 1.022 ± 0.0015.

For the sequence CCGTAGGGCT, the switch fluorescence ratio was determined as 1.05 ± 0.042. GGGTGAGGGT: the switch fluorescence ratio was 0.993 ± 0.015.
